Substitutions are numbered along the chain they refer to. Names may count otherwise.

The results in this text go back to patent US20210388087A1 (Chugai, published 2021).

First the molecules themselves.
B1: CE115HA000 A99L one-arm antibody (antibody, human IgG1, kappa, L234A L235A, N297A, name in Kabat numbering)
heavy: QVQLVESGGGVVQPGRSLRLSCAASGFTFSNAWMHWVRQAPGKGLEWVAQIKAKSNNYATYYAESVKGRFTISRDDSKNSLYLQMNSLKTEDTAVYYCRYVHYGLYYGVDAWGQGTTVTVSSASTKGPSVFPLAPSSKSTSGGTAALGCLVKDYFPEPVTVSWNSGALTSGVHTFPAVLQSSGLYSLSSVVTVPSSSLGTQTYICNVNHKPSNTKVDKKVEPKSCDKTHTCPPCPAPEAAGGPSVFLFPPKPKDTLMISRTPEVTCVVVDVSHEDPEVKFNWYVDGVEVHNAKTKPREEQYASTYRVVSVLTVLHQDWLNGKEYKCKVSNKALPAPIEKTISKAKGQPREPQVYTLPPSRCELTKNQVSLSCAVKGFYPSDIAVEWESNGQPENNYKTTPPVLDSDGSFFLVSKLTVDKSRWQQGNVFSCSVMHEALHNHYTQKSLSLSPDYKDDDDK
chain: EPKSSDKTHTCPPCPAPELLGGPSVFLFPPKPKDTLMISRTPEVTCVVVDVSHEDPEVKFNWYVDGVEVHNAKTKPREEQYNSTYRVVSVLTVLHQDWLNGKEYKCKVSNKALPAPIEKTISKAKGQPREPQVCTLPPSRDELTKNQVSLWCLVKGFYPSDIAVEWESNGQPENNYKTTPPVLDSDGSFFLYSKLTVDKSRWQQGNVFSCSVMHEALHNRYTQKSLSLSP
light: DIVMTQSPLSLPVTPGEPASISCRSSQSLVHSNRNTYLHWYQQKPGQAPRLLIYKVSNRFSGVPDRFSGSGSGTDFTLKISRVEAEDVGVYYCGQGTQVPYTFGQGTKLEIKRTVAAPSVFIFPPSDEQLKSGTASVVCLLNNFYPREAKVQWKVDNALQSGNSQESVTEQDSKDSTYSLSSTLTLSKADYEKHKVYACEVTHQGLSSPVTKSFNRGEC
B2: CE115HA000 D73N one-arm antibody (antibody, human IgG1, kappa, L234A L235A, N297A, name in Kabat numbering)
heavy: B1 heavy with D76N, L105A
chain: B1 chain
light: B1 light
B3: CE115HA000 A99S one-arm antibody (antibody, human IgG1, kappa, L234A L235A, N297A, name in Kabat numbering)
heavy: B1 heavy with L105S
chain: B1 chain
light: B1 light
B4: CE115HA000 D101G one-arm antibody (antibody, human IgG1, kappa, L234A L235A, N297A, name in Kabat numbering)
heavy: B1 heavy with L105A, D110G
chain: B1 chain
light: B1 light
B5: CE115HA000 A99T one-arm antibody (antibody, human IgG1, kappa, L234A L235A, N297A, name in Kabat numbering)
heavy: B1 heavy with L105T
chain: B1 chain
light: B1 light
B6: CE115HA000 D101N one-arm antibody (antibody, human IgG1, kappa, L234A L235A, N297A, name in Kabat numbering)
heavy: B1 heavy with L105A, D110N
chain: B1 chain
light: B1 light
B7: CE115HA000 D101F one-arm antibody (antibody, human IgG1, kappa, L234A L235A, N297A, name in Kabat numbering)
heavy: B1 heavy with L105A, D110F
chain: B1 chain
light: B1 light
B8: CE115HA000 D73K one-arm antibody (antibody, human IgG1, kappa, L234A L235A, N297A, name in Kabat numbering)
heavy: B1 heavy with D76K, L105A
chain: B1 chain
light: B1 light
B9: CE115HA000 D101H one-arm antibody (antibody, human IgG1, kappa, L234A L235A, N297A, name in Kabat numbering)
heavy: B1 heavy with L105A, D110H
chain: B1 chain
light: B1 light
B10: CE115HA000 A102I one-arm antibody (antibody, human IgG1, kappa, L234A L235A, N297A, name in Kabat numbering)
heavy: B1 heavy with L105A, A111I
chain: B1 chain
light: B1 light
B11: CE115HA000 D101Q one-arm antibody (antibody, human IgG1, kappa, L234A L235A, N297A, name in Kabat numbering)
heavy: B1 heavy with L105A, D110Q
chain: B1 chain
light: B1 light
B12: CE115HA000 A99Q one-arm antibody (antibody, human IgG1, kappa, L234A L235A, N297A, name in Kabat numbering)
heavy: B1 heavy with L105Q
chain: B1 chain
light: B1 light
B13: CE115HA000 D73E one-arm antibody (antibody, human IgG1, kappa, L234A L235A, N297A, name in Kabat numbering)
heavy: B1 heavy with D76E, L105A
chain: B1 chain
light: B1 light
B14: CE115HA000 A99Y one-arm antibody (antibody, human IgG1, kappa, L234A L235A, N297A, name in Kabat numbering)
heavy: B1 heavy with L105Y
chain: B1 chain
light: B1 light
B15: CE115HA000 D101A one-arm antibody (antibody, human IgG1, kappa, L234A L235A, N297A, name in Kabat numbering)
heavy: B1 heavy with L105A, D110A
chain: B1 chain
light: B1 light
B16: CE115HA000 D73A one-arm antibody (antibody, human IgG1, kappa, L234A L235A, N297A, name in Kabat numbering)
heavy: B1 heavy with D76A, L105A
chain: B1 chain
light: B1 light
B17: CE115HA000 D101I one-arm antibody (antibody, human IgG1, kappa, L234A L235A, N297A, name in Kabat numbering)
heavy: B1 heavy with L105A, D110I
chain: B1 chain
light: B1 light
B18: CE115HA000 D72E one-arm antibody (antibody, human IgG1, kappa, L234A L235A, N297A, name in Kabat numbering)
heavy: B1 heavy with D75E, L105A
chain: B1 chain
light: B1 light
B19: CE115HA000 D101R one-arm antibody (antibody, human IgG1, kappa, L234A L235A, N297A, name in Kabat numbering)
heavy: B1 heavy with L105A, D110R
chain: B1 chain
light: B1 light
B20: CE115HA000 D72V one-arm antibody (antibody, human IgG1, kappa, L234A L235A, N297A, name in Kabat numbering)
heavy: B1 heavy with D75V, L105A
chain: B1 chain
light: B1 light
B21: CE115HA000 D73R one-arm antibody (antibody, human IgG1, kappa, L234A L235A, N297A, name in Kabat numbering)
heavy: B1 heavy with D76R, L105A
chain: B1 chain
light: B1 light
B22: CE115HA000 A102P one-arm antibody (antibody, human IgG1, kappa, L234A L235A, N297A, name in Kabat numbering)
heavy: B1 heavy with L105A, A111P
chain: B1 chain
light: B1 light
B23: CE115HA000 D101M one-arm antibody (antibody, human IgG1, kappa, L234A L235A, N297A, name in Kabat numbering)
heavy: B1 heavy with L105A, D110M
chain: B1 chain
light: B1 light
B24: CE115HA000 D101P one-arm antibody (antibody, human IgG1, kappa, L234A L235A, N297A, name in Kabat numbering)
heavy: B1 heavy with L105A, D110P
chain: B1 chain
light: B1 light
B25: CE115HA000 A102Y one-arm antibody (antibody, human IgG1, kappa, L234A L235A, N297A, name in Kabat numbering)
heavy: B1 heavy with L105A, A111Y
chain: B1 chain
light: B1 light
B26: CE115HA000 D101L one-arm antibody (antibody, human IgG1, kappa, L234A L235A, N297A, name in Kabat numbering)
heavy: B1 heavy with L105A, D110L
chain: B1 chain
light: B1 light
B27: CE115HA000 A102V one-arm antibody (antibody, human IgG1, kappa, L234A L235A, N297A, name in Kabat numbering)
heavy: B1 heavy with L105A, A111V
chain: B1 chain
light: B1 light
B28: CE115HA000 D101K one-arm antibody (antibody, human IgG1, kappa, L234A L235A, N297A, name in Kabat numbering)
heavy: B1 heavy with L105A, D110K
chain: B1 chain
light: B1 light
B29: CE115HA000 D72A one-arm antibody (antibody, human IgG1, kappa, L234A L235A, N297A, name in Kabat numbering)
heavy: B1 heavy with D75A, L105A
chain: B1 chain
light: B1 light
B30: CE115HA000 D73G one-arm antibody (antibody, human IgG1, kappa, L234A L235A, N297A, name in Kabat numbering)
heavy: B1 heavy with D76G, L105A
chain: B1 chain
light: B1 light
B31: CE115HA000 D73T one-arm antibody (antibody, human IgG1, kappa, L234A L235A, N297A, name in Kabat numbering)
heavy: B1 heavy with D76T, L105A
chain: B1 chain
light: B1 light

The target in this experiment is T1, CD3 epsilon homodimer protein (UniProt P07766 23-126).
T1 construct: immobilized on Sensor chip CM4 by amine coupling; also called CD3 (CD3 epsilon)
T1 sequence (P07766 23-126): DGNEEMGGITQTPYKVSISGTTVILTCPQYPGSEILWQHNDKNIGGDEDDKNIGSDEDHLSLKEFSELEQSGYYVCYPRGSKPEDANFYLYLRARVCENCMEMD
Briefly: SPR (Biacore T200), CD3 epsilon homodimer on CM4 chip, one-arm antibody as analyte, 25 C.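 Also: homodimer attached to the sensor surface via amine coupling, HBS-EP+ used as running buffer during binding runs.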
With B1, the “ratio of amounts bound (altered form / CE115HA000)” value is 1.13. For the molecule B2, the “ratio of amounts bound (altered form / CE115HA000)” value was found to be 0.94. With B3 the figure was 0.82; with B4, 1.38; with B5, 0.84. With B6 the figure was 2.02; with B7, 0.75; with B8, 0.87. For the molecule B9, the “ratio of amounts bound (altered form / CE115HA000)” value was determined as 1.21. In the case of B10, the “ratio of amounts bound (altered form / CE115HA000)” value worked out at 1.48. For B11, the “ratio of amounts bound (altered form / CE115HA000)” value was found to be 2.35. On to B12, for which the “ratio of amounts bound (altered form / CE115HA000)” value was found to be 0.91. In the case of B13, the “ratio of amounts bound (altered form / CE115HA000)” value was 0.73. For the molecule B14, the “ratio of amounts bound (altered form / CE115HA000)” value worked out at 1.59.

B15: the “ratio of amounts bound (altered form / CE115HA000)” value is 1.26. As for B16, the “ratio of amounts bound (altered form / CE115HA000)” value is 0.83. Turning to B17, the “ratio of amounts bound (altered form / CE115HA000)” value came out at 1.18. For B18, the “ratio of amounts bound (altered form / CE115HA000)” value amounted to 1.05.

As for B19, the “ratio of amounts bound (altered form / CE115HA000)” value amounted to 0.24. Take B20: the “ratio of amounts bound (altered form / CE115HA000)” value is 1.43. In the case of B21, the “ratio of amounts bound (altered form / CE115HA000)” value was 1.04. On to B22, for which the “ratio of amounts bound (altered form / CE115HA000)” value is 0.14. Turning to B23, the “ratio of amounts bound (altered form / CE115HA000)” value was found to be 1.2. The same measure for B24: 0.2; for B25: 0.91; for B26: 0.62. As for B27, the “ratio of amounts bound (altered form / CE115HA000)” value was 1.43. The same measure for B28: 0.63; for B29: 1.41. As for B30, the “ratio of amounts bound (altered form / CE115HA000)” value is 1.07. The same measure for B31: 0.63.
